This assay has as its target Neonatal Fc Receptor (FcRn) (UniProt P55899). Nature of the assay: FcRn binding assay, BIACORE (SPR).

Drawing on patent US20230059341A1, this text covers Kd for one substance.

Chain of Neonatal Fc Receptor (FcRn) (P55899 24-297 limits assumed, chain 1 of 2): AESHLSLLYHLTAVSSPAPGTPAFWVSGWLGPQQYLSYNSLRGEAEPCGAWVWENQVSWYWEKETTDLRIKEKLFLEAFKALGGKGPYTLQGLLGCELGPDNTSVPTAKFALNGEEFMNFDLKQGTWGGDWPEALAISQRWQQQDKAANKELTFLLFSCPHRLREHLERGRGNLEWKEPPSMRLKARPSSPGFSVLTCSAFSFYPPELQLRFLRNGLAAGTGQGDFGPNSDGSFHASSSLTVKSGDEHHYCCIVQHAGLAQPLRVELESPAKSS
Chain of Neonatal Fc Receptor (FcRn) (P61769 21-119 limits assumed, chain 2 of 2, further chain): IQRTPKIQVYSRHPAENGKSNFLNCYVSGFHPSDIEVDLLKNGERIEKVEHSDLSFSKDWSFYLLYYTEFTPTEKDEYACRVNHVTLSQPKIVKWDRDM

The substance “Dostarlimab, base degraded, pH 9.0, 40° C., 1 week (antibody)” gave a Kd of 2.34 µM.
